According to US6656735, “Method for identification of target genes of transcription factors” (GSF Forschungszentrum Fuer Umwelt Und Gesundheit GmbH):

Columns and labels:
[1] = target: T1, Engrailed 2 full length (En2, ChEn2) (Gallus gallus, UniProt Q05917 Q05917:1-289); test: EMSA; two shifted complexes; 20 mM Tris-HCl pH 7.9, 35 mM KCl, 2.5 mM MgCl2, poly-dIdC, on ice; details: label: 32P
T1 sequence: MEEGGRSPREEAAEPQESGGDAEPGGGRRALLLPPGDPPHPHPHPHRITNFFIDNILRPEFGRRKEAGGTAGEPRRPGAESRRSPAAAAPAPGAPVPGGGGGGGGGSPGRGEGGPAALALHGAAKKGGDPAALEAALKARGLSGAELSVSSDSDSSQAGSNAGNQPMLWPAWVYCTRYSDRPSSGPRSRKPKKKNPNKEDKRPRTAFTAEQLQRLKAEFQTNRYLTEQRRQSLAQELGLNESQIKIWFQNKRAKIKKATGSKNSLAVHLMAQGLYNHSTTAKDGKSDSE

[2] = target: T1, Engrailed 2 full length (En2, ChEn2); test: EMSA; two shifted complexes; no ATTA core; 20 mM Tris-HCl pH 7.9, 35 mM KCl, 2.5 mM MgCl2, poly-dIdC, on ice; details: label: 32P
[3] = target: T2, EnHD (Engrailed 2 homeodomain, 60 aa) (Gallus gallus, UniProt Q05917 Q05917:200-259); test: EMSA; four complexes with 10 to 100 ng EnHD; fragment with six NP6 copies; details: tags: E. coli pET-3a, heparin-sepharose purified, no tag stated; label: 32P
T2 sequence: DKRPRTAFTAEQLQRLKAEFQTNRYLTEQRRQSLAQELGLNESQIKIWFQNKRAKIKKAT
Method: FIGS. 2A, 2B and 2C: Bacterially produced EnHD binds DNA and is efficiently internalized into cells in culture. (A) Polyacrylamide gel electrophoresis is of EnHD purified from *E. coli* extracts (Coomassie staining). (B) Band shift assay, performed by incubating 0.5 ng ^32P-ATP-labeled NP6 oligonucleotides with increasing amounts (0, 10, 20, 50 and 100 ng) of purified EnHD. (C) ES cells (upper Pannels) or GMA24FIA (lower Pannels) were incubated for 2 hrs. with FITC-EnHD (300 ng/ml) (left) or FITC alone (right).
The protocol described in FIG. 1 requires the EnHD added to the culture medium to be internalized by a large number of ES cells. EnHD was produced in E. coli and purified on heparin sepharose. […] To test the binding properties of EnHD, gel shift experiments were performed using a DNA fragment containing six copies of the NP6 site (TCAATTAAAT) (SEQ ID NO:3) known to bind Drosophila Engrailed.

B1: BPAG1e promoter oligonucleotide -2225 to -2180 (dsDNA)
DNA 1: CTCAAATAATTAGTCATTAAAAAAAATAAAGGCATATGAGCCAGCCT
DNA 2: AGGCTGGCTCATATGCCTTTATTTTTTTTAATGACTAATTATTTGAG
B1: binds [1].

B2: BPAG1e promoter oligonucleotide -694 to -665 (dsDNA)
DNA 1: CGCAGAATATTGGCTCAGTAACTAAGTGTG
DNA 2: CACACTTAGTTACTGAGCCAATATTCTGCG
B2: binds [2].

B3: NP6 site, six copies (dsDNA)
DNA 1: TCAATTAAAT
DNA 2: ATTTAATTGA
B3: binds [3].
